Reference: the nanobody polyreactivity screen of Harvey et al. (2022)

Test: yeast display, Sf9 membrane polyspecificity reagent, FACS + sequencing; frameworks hold sequencing errors
Procedure, shortened: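 Nanobodies from a synthetic yeast display library (Saccharomyces cerevisiae BJ5465), induced 36–48 hours with galactose, were stained 1 hour at 4 °C with 10% biotinylated, detergent-solubilized Sf9 membrane reagent, enriched on streptavidin microbeads, then FACS-sorted. Anti-HA (expression) and streptavidin (reagent binding) fluorescence set low and high (top ~1%) gates. Polyreactivity labels come from the gate of origin. Genes were colony-PCR amplified, MiSeq 2 × 250 sequenced and filtered by CDR length.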

Sequence | polyreactivity (PSR sort gate)
QVQLVESGGGLVQAGGSLRLSCAASGFTFSYNTMGWYREAPGKERELVAAISRSGGRTFYADSVKGRFTISRDNAKNTVYLQMNSLKPEDTAVYYCARPWFDYWGQGTQVTVSS | high polyreactivity
QVQLVESGGGLVQAGGSLRLSCAASGFTFSYNTMGWYRQAPGKERELVAAIDGSGGSTYYADSVKGRFTISRDNAKNTVYLQMNSLKPEDTAVYYCAAEWYRGGEYRRYDYWGQGTQVTVSS | high polyreactivity
QVQLVESGGGLVQAGGSLRLSCAASGFTFSYYAKGWYRQAPGKERELVARISFSGTRTYYADSVKGRFTISRDNAKKTVYLQMKSLKPEDTAVSYWARRPGAWKYVYSGDYWGQGTQVTVSS | high polyreactivity
QVQLVESGGGLVQAGGSLRLSCAASGFTFSYYAKGWYRQAPGKERELVAVISDRGGITYYADSVKGRFTISRDNAKNTVYLQMNSLKPEDTAVYYCAAQNPRYNDRYYYWGQGTQVTVSS | low polyreactivity
QVQLVESGGGLVQAGGSLRLSCAASGFTFSYYAMGWYRQAPGKERELVAAIRGGGSTYADSVKGRFTISRDNAKNTVYLQMHSLKPEDTAVYYCAARYSGSPYPTRRYDYWGQGTQVTVSS | high polyreactivity
QVQLVESGGGLVQAGGSLRLSCAASGFTFSYYAMGWYRQAPGKERELVAAISWNGGSTYYADSVKGRFTISRDNAKNTVYLQMNCLKPEDTAVYYCAADSLLYYYDTGYEYWGQGTQVTVSS | high polyreactivity
QVQLVESGGGLVQAGGSLRLSCAASGFTFSYYAMGWYRQAPGKERELVASISRSGNTYYADSVKGRFTISRDNAKNSVYLQMNSLKPEDTAVYYCAAAYKSYYLDGTYYYWGQGTQVTVSS | high polyreactivity
QVQLVESGGGLVQAGGSLRLSCAASGFTFSYYGMGWYRQAPGKERELVAAISWSGGRTYYADSVKGRFTISRDNAKNTVYLQMNSLKPEDTAVYYCAASAPRGYGYKYYYWGQGTQVTVSS | high polyreactivity
QVQLVESGGGLVQAGGSLRLSCAASGFTFSYYTMGWYRQAPGKERELVAAISSTGVSTYYADSVKGRFTISRDNAKNTVYLQMNSLKPEDTAVYYCAADYYGVYEYYYWGQGTQVTVSS | high polyreactivity
QVQLVESGGGLVQAGGSLRLSCAASGFTFTANAMGWYRQAPGKERELVAAITRNGGRTYYADSVKGRFTLSRDNAKNNVYLQMNSLKPEDTAVYYCAKPNSQRIHDDYDYWGQGTQVTVSS | high polyreactivity
QVQLVESGGGLVQAGGSLRLSCAASGFTFTAYAMGWYRQAPGKERELVAAISYRGGRTNYAYSVKGRFTISRDNAKNTVYLQMNSLKPEDTAVYYCAARPRISTREMDYWGQGTQVTVSS | high polyreactivity
QVQLVESGGGLVQAGGSLRLSCAASGFTFTDYAKGWYRQAPGKERELVAAITKGGGRTYYADSVKWRFTISRDNAKNSVYLQMNSQKPEDTAVYYCNARYQVPYGYWGQGTQVTVSS | low polyreactivity
QVQLVESGGGLVQAGGSLRLSCAASGFTFTGYAMGWYRQAPGKERELVAAISQSGGSTYADSVKGRFTISRDNAKNTVYLQMNSLKPEDTAVYYCAAVWFLLTEYDYWGQGTQVTVSS | low polyreactivity
QVQLVESGGGLVQAGGSLRLSCAASGFTFTGYAMGWYRQAPGKERELVAAISQSGGSTYADSVKGRFTISRDNAKNTVYLQMNSLKPEDTAVYYCNAATHGPFDYWGQGTQVTVSS | low polyreactivity
QVQLVESGGGLVQAGGSLRLSCAASGFTFTKNAMGWYRQAPGKERELVAAISRGGRTYYADSVKGRFTISRDNAKNTVYLQMNSLKPEDTADYYCAKGYASQILVAPRSQYYYWGQGTQVTVSS | high polyreactivity
QVQLVESGGGLVQAGGSLRLSCAASGFTFTKYDMGWYRQAPGKERELVAVITWSGGSTYYADSVKGRFTISRDNAKNTVYLQMNSLKPEDTAVYYCNDEAPRYTYGRMDYWGQGTQVTVSS | low polyreactivity

Sequence | polyreactivity (PSR sort gate)
QVQLVESGGGLVQAGGSLRLSCAASGFTFTNYAMGWYRQAPGKERELVAAINSSGSTNYADSVKGRFTISRDNAKNTVYLQMNSLKPEDTAVYYCAVDYSYWVHGFWDDYDYWGQGTQVTVSS | low polyreactivity
QVQLVESGGGLVQAGGSLRLSCAASGFTFTPNAMGRYRQAPGKERELVAVISYSGGSTYYADSVKGRFTISRDNAKNTVYLQMNSLKPEDTAVYYCAKRTYSSKYFGFEYWGQGTQVTVSS | high polyreactivity
QVQLVESGGGLVQAGGSLRLSCAASGFTFTQYAMGWYGQAPGKEREFVAAITASGGSTYYADSVKGRFTISRDNAKNTVYLQMNSLKPEDTAVYYCAAKGRPDGKYDYWGQGTQVTVSS | high polyreactivity
QVQLVESGGGLVQAGGSLRLSCAASGFTFTRNAMGWYRQAPGKERELVAAITSSGGRTYYADSVKGRFTISRDNAKNTVYLQMNSLKPEDTAVYYCAVYPRYSLPARDYDYWGQGTQVTVSS | high polyreactivity
QVQLVESGGGLVQAGGSLRLSCAASGFTFTRYAMGWYRQAPGKERELVADITRSGGTTYYADSVKGRFTISRDNAKNTVYLQMNSLKPEDTAVYYCAADTYSHGRYYRMDYWGQGTQVTVSS | high polyreactivity
QVQLVESGGGLVQAGGSLRLSCAASGFTFTSNAMGWYRQAPGKERELVAAITSSGGITYYADSVKGRFTISRDNAKNTVYLQMNSLKPEDTAVYYCAASISSYNSPGYGYWGQGTQVTVSS | low polyreactivity
QVQLVESGGGLVQAGGSLRLSCAASGFTFTSNAMGWYRQAPGKERELVAVISTRGGSTYYADSVKGRFTISRDNAKNTVYLQMNSLKPEDTAVYYCAARQIPNSVLVHYGYWGLGTQVTVSS | high polyreactivity
QVQLVESGGGLVQAGGSLRLSCAASGFTFTSYTMGWYRQAPGKERELVAVISWSGGGTYYADSVKGRFTISRDNAKNTVYLQMNSLKPEDTAVYYCNKAPTNLFGGRYDYWGQGTQVTVSS | low polyreactivity
QVQLVESGGGLVQAGGSLRLSCAASGFTFTTYVMGWYRQAPGKERELVAAISRRGTSTRYADSVKGRFTISRDNAKNTVYLQMNSLKPEDTAVYYCAADRPYSIVPYDYWGQGTQVTVSS | high polyreactivity
QVQLVESGGGLVQAGGSLRLSCAASGFTFTVYAMGWYRQAPGKERELVAVITSGDGTYYADSVKGRFTISRDNAKNTVYLQMHSLKPEDTAVYYCNARRYSSLRYRFAYDYWGQGTQVTESS | low polyreactivity
QVQLVESGGGLVQAGGSLRLSCAASGFTFTWYAMGWYRQAPGKERELVASISRSGGSTYYADSVKGRFTISRDNAKNTVYLQMNSLKPEDTAVYYCAAVSRTRSYDYWGQGTQVTVSS | high polyreactivity
QVQLVESGGGLVQAGGSLRLSCAASGFTFTYNDMGWYIQAPGKEREFVAAISSTGGSTYYADSVKGRFTISRDNAKNTVYLQMNSLKAEDTAVYYCAAEDSWYWDAWFDYWGQGTQVTVSS | low polyreactivity
QVQLVESGGGLVQAGGSLRLSCAASGFTFTYNDMGWYRQAPGKEREFVAAISSTGGSTYYADSVKGRFTISRDNAKNTVYLQMNSLKPEDTAVYYCAAEDSWYWDAWFDYWGQGTQVTVSS | low polyreactivity
QVQLVESGGGLVQAGGSLRLSCAASGFTFTYYALGWYRQAPGKERQLVAAISSRGGRTYYADSVKVRFRISRDNAKNTVYLLMKSLKPEDTAVYYCAARVYKGWPTHYDYLGQGTQVTVSS | high polyreactivity
QVQLVESGGGLVQAGGSLRLSCAASGFTFTYYAMGWYRQAPGKERELVAAISWNGGSTYYADSVKGRFTISRDNAKNTVYLQMNSLKPEDTAVYYCNAYDYQYFYGYEYDYWGQGTQVTVSS | high polyreactivity
QVQLVESGGGLVQAGGSLRLSCAASGFTFTYYAMGWYRQAPGKERELVAAITKSGGSTYYADSVKGRFTISRDNAKNTVYLQMNSLKPEDTAVYYCAADTRYGRERYYWGQGTQVTVSS | high polyreactivity
